Source: doi:10.1101/2024.03.19.585040
Read-outs that look alike come from different tables or passages of the source.

Legend:
[1] = molecular target: FakA H282A, H284A (Staphylococcus aureus) (Staphylococcus aureus); test: mass photometry
[2] = molecular target: FakA H282A, H284A (Staphylococcus aureus) (Staphylococcus aureus); test: mass photometry; remark: listed apart in the source
[3] = molecular target: Fatty acid kinase FakA (Staphylococcus aureus), wild type (Staphylococcus aureus); test: mass photometry
[4] = molecular target: Fatty acid kinase FakA (Staphylococcus aureus), wild type (Staphylococcus aureus); test: SEC-SAXS
[5] = molecular target: His-tagged FakB2 (Staphylococcus aureus) (Staphylococcus aureus); test: BLI
[6] = molecular target: Fatty acid kinase FakA (Staphylococcus aureus), wild type (Staphylococcus aureus); test: mass photometry; remark: listed apart in the source

Row | Substance | percent of the protein in the dimer peak [1] | percent of the protein in the dimer peak [2] | percent of the protein in the dimer peak [3] | stoichiometry N [4] | Kd [5] | percent of the protein in the dimer peak [6] | stoichiometry N [6]
1 | FakA H282A, H284A (Staphylococcus aureus) (enzyme) | 24% | 63% |  |  |  |  | 
2 | Fatty acid kinase FakA (Staphylococcus aureus), wild type (enzyme) |  |  | 57% | 2 | 4.34 nM | 77% | 2
